# Substrate: O=C(O)C(=O)O
# Assay: purified protein
# Conditions: pH 8.0, 5 mM ATP, 0.5 mM CoA, 10 mM MgCl2, 2 mM DTT, oxalate up to 400 μM
protein,measurement,value
MtAAE3 (Medicago truncatula Acyl Activating Enzyme 3; oxalyl-CoA synthetase) (Medicago truncatula) (protein) ETATTLTGLLQSVAEKFPSRRAISVAGKFDLTHSQLHELVESAANHLISAGIKPNDVVALTFPNTIEYVIMFLAVIRVRATAAPLNAAYTSEEFEFYLSDSESKLLLTPLEGNNPAQTAATKLNIPLGSVCFNKTEEETKLSISLNQTESANSVSELINEPSDVALFLHTSGTTSRPKGVPLSQHNLVSSVRNIESVYRLSELDSTVIVLPLFHVHGLIAGLLSSLGAGGAVALPAAGRFSASTFWKDMIQYNATWYTAVPTIHQIILDRHQSNPEPVYPKLRFIRSCSASLAPVILGRLEEAFGAPVLEAYAMTEATHLMCSNPLPEDGPHKAGSVGKPVGQEMAILDESGRVLEADVNGEVCIKGENVTKGYKNNEEANKSAFLFGWFHTGDIGYFDSDGYLHLVGRIKELINRGGEKISPIEVDAVLLGHQDVAQAVAFGVPDQKYGEEIHCAIIPREGSNIDAEEVLKYCKTNLTSFKVPKKVFITDSLPKTATGKILRRLVAEHFVSQA,Km,81.0 ± 8.1 µM
